# Results taken from US20240026037A1 (Memorial Sloan Kettering, published 2024).
# T1: Human GPA33 on GPA33+ colorectal cancer cell lines (Colo 205, LS 174T, SW 1222) (human, UniProt Q99795 22-319)
# T1 construct: Endogenous GPA33 on human colorectal cancer cell lines; also called surface human GPA33; GPA33+ tumor cell lines
# T1 sequence: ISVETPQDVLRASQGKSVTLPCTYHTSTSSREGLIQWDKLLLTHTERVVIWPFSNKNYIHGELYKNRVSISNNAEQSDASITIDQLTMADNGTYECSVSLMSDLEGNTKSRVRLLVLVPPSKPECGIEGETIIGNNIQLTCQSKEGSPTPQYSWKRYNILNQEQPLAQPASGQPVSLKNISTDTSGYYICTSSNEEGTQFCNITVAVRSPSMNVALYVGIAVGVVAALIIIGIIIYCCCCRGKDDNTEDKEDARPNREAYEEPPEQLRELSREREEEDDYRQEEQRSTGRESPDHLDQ
# T2: Human GPA33 (recombinant protein, Novoprotein) (human, UniProt Q99795 22-235)
# T2 construct: Bought recombinant protein immobilized on a CM5 chip; also called GPA33 antigen; tumor antigen GPA33
# T2 sequence: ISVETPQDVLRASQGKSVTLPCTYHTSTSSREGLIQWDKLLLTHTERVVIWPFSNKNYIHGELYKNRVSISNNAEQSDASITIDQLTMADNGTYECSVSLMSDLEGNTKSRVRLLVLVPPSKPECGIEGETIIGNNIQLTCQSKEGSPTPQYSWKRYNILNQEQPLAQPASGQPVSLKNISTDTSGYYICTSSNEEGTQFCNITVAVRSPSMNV
# B1: TC159 (bispecific antibody)
# chain: EVQLVESGGGLVKPGGSLRLSCAASGFAFSTYDMSWVRQAPGKRLEWVATISSGGSYTYYLDSVKGRFTISRDNAKNSLYLQMNSLRAEDTAVYYCAPTTVVPFAYWGQGTLVTVSSGGGGSGGGGSGGGGSGGGGSGGGGSGGGGSDIQMTQSQSSLSTSVGDRVTITCKASQNVRTVVAWYQQKPGKSPKTLIYLASNRHTGVPSRFSGSGSGTEFTLTISNVQPEDFADYFCLQHWSYPLTFGSGTKLEIKRGGGGSGGGGSGGGGSGGGGSHVQLVESGGGLVQPGGSLRLSCAASGFSLTDYGVHWVRQAPGKGLEWLGVIWSGGGTAYNTALISRFTISRDNSKNTLYLQMNSLRAEDTAVYYCARRGSYPYNYFDAWGCGTLVTVSSGGGGSGGGGSGGGGSGGGGSGGGGSGGGGSQAVVTQEPSLTVSPGGTVTLTCGSSTGAVTASNYANWVQQKPGQCPRGLIGGHNNRPPGVPARFSGSLLGGKAALTLLGAQPEDEAEYYCALWYSDHWVIGGGTKLTVLGTPLGDTTHTSGKPLDGEYFTLQIRGRERFEMFRELNEALELKDAQAGKEPGGSGGAPHHHHHH
# notes: Previously described GPA33xDOTA SADA clone whose GPA33 scFv comes from another clone; Carries the p53 SADA (tetramerization) domain
# How the values were obtained:
# [1] = biological target: T1, Human GPA33 on GPA33+ colorectal cancer …; assay: flow cytometry, SW 1222 cells
# [2] = biological target: T1, Human GPA33 on GPA33+ colorectal cancer …; assay: FACS binding to LS174T cells (GPA33+)
# [3] = biological target: T1, Human GPA33 on GPA33+ colorectal cancer …; assay: flow cytometry, LS 174T cells
# [4] = biological target: T1, Human GPA33 on GPA33+ colorectal cancer …; assay: FACS titration on Colo205 cells, geometric mean MFI (the text prints 2.46 nM and calls it IC50)
# [5] = biological target: T2, Human GPA33 (recombinant protein, …); assay: SPR (Biacore), human GPA33 immobilized on CM5 chip, two-state fit, kd1
# Summary of the method: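 The off-rate (kd1) was determined by surface plasmon resonance against immobilised recombinant human GPA33, using a two-state binding model fit. Antibodies were tested on a CM5 chip in a Biacore T100 at five concentrations, from 20 nM in 2-fold serial dilutions. The parent IgG1 was measured at 25° C, and the bispecific formats at 25° C and 37° C.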
# [6] = biological target: T2, Human GPA33 (recombinant protein, …); assay: SPR (Biacore), human GPA33 immobilised on the chip; KD relative to that of TC170
# Summary of the method: (§1)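 Recombinant human GPA33 (Novoprotein) was immobilised on a CM5 sensor chip, and antibodies were injected at five concentrations in 2-fold serial dilutions from 20 nM. Affinity (KD) was determined by surface plasmon resonance on a Biacore system, with kinetic fitting of the sensorgrams giving rate constants and KD. Every KD is reported as a ratio to the KD of a reference molecule.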
# [7] = biological target: T1, Human GPA33 on GPA33+ colorectal cancer …; assay: FACS binding to SW1222 cells (GPA33+)
# [8] = biological target: T1, Human GPA33 on GPA33+ colorectal cancer …; assay: FACS binding to Colo205 cells (GPA33+); the text prints 2.46 nM for this pair
# [9] = biological target: T1, Human GPA33 on GPA33+ colorectal cancer …; assay: flow cytometry, Colo 205 cells; Colo 205 cells
# [10] = biological target: T2, Human GPA33 (recombinant protein, …); assay: SPR (Biacore), human GPA33 immobilized on CM5 chip, two-state fit, ka1
# Summary of the method: (§2)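 GPA33 immobilized on CM5 chip; five 2-fold dilutions of huA33 IgG1 or huA33 bispecifics from 20 nM injected. Kinetics measured at 25 °C for huA33, at both 25 °C and 37 °C for bispecifics; sensorgrams fitted to a two-state binding model.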
# [11] = biological target: T2, Human GPA33 (recombinant protein, …); assay: SPR (Biacore), human GPA33 immobilized on CM5 chip, two-state fit
# Summary of the method: as §2
# [12] = biological target: T1, Human GPA33 on GPA33+ colorectal cancer …; assay: FACS binding to Colo205 cells (GPA33+)
# [13] = biological target: T2, Human GPA33 (recombinant protein, …); assay: SPR
# Summary of the method: as §1
binder,measurement,setting,value
B1,IC50,[1],0.4 nM
same,"fold change of binding EC50 (relative to TC170, lower is better)",[2],3.94
same,IC50,[3],1.22 nM
same,EC50,[4],2.47 nM
same,koff,[5],0.00181 s⁻¹
same,"Fold change of KD (relative to TC170, lower is better)",[6],1.4
same,"fold change of binding EC50 (relative to TC170, lower is better)",[7],0.24
same,EC50,[8],2.47 nM
same,EC50,[9],2.46 nM
same,kon,[10],4.09e+06 M⁻¹ s⁻¹
same,Kd,[11],0.0216 nM
same,ka2,[11],0.00613 s⁻¹
same,kd2,[11],0.000315 s⁻¹
same,"fold change of binding EC50 (relative to TC170, lower is better)",[12],3.34
same,fold higher affinity than TC160,[13],3 fold
